In article PMC8298264, “Function of cofactor Akirin2 in the regulation of gene expression in model human neutrophil-like HL60 cells” (Bioscience Reports, 2021):

B1: sp¦P11387¦TOP1_HUMAN (protein, UniProt P11387 2-765, looked up)
DNA topoisomerase 1: SGDHLHNDSQIEADFRLNDSHKHKDKHKDREHRHKEHKKEKDREKSKHSNSEHKDSEKKHKEKEKTKHKDGSSEKHKDKHKDRDKEKRKEEKVRASGDAKIKKEKENGFSSPPQIKDEPEDDGYFVPPKEDIKPLKRPRDEDDADYKPKKIKTEDTKKEKKRKLEEEEDGKLKKPKNKDKDKKVPEPDNKKKKPKKEEEQKWKWWEEERYPEGIKWKFLEHKGPVFAPPYEPLPENVKFYYDGKVMKLSPKAEEVATFFAKMLDHEYTTKEIFRKNFFKDWRKEMTNEEKNIITNLSKCDFTQMSQYFKAQTEARKQMSKEEKLKIKEENEKLLKEYGFCIMDNHKERIANFKIEPPGLFRGRGNHPKMGMLKRRIMPEDIIINCSKDAKVPSPPPGHKWKEVRHDNKVTWLVSWTENIQGSIKYIMLNPSSRIKGEKDWQKYETARRLKKCVDKIRNQYREDWKSKEMKVRQRAVALYFIDKLALRAGNEKEEGETADTVGCCSLRVEHINLHPELDGQEYVVEFDFLGKDSIRYYNKVPVEKRVFKNLQLFMENKQPEDDLFDRLNTGILNKHLQDLMEGLTAKVFRTYNASITLQQQLKELTAPDENIPAKILSYNRANRAVAILCNHQRAPPKTFEKSMMNLQTKIDAKKEQLADARRDLKSAKADAKVMKDAKTKKVVESKKKAVQRLEEQLMKLEVQATDREENKQIALGTSKLNYLDPRITVAWCKKWGVPIEKIYNKTQREKFAWAIDMADEDYEF
B2: sp¦Q92878¦RAD50_HUMAN (protein, UniProt Q92878 1-1312, looked up)
DNA repair protein RAD50: MSRIEKMSILGVRSFGIEDKDKQIITFFSPLTILVGPNGAGKTTIIECLKYICTGDFPPGTKGNTFVHDPKVAQETDVRAQIRLQFRDVNGELIAVQRSMVCTQKSKKTEFKTLEGVITRTKHGEKVSLSSKCAEIDREMISSLGVSKAVLNNVIFCHQEDSNWPLSEGKALKQKFDEIFSATRYIKALETLRQVRQTQGQKVKEYQMELKYLKQYKEKACEIRDQITSKEAQLTSSKEIVKSYENELDPLKNRLKEIEHNLSKIMKLDNEIKALDSRKKQMEKDNSELEEKMEKVFQGTDEQLNDLYHNHQRTVREKERKLVDCHRELEKLNKESRLLNQEKSELLVEQGRLQLQADRHQEHIRARDSLIQSLATQLELDGFERGPFSERQIKNFHKLVRERQEGEAKTANQLMNDFAEKETLKQKQIDEIRDKKTGLGRIIELKSEILSKKQNELKNVKYELQQLEGSSDRILELDQELIKAERELSKAEKNSNVETLKMEVISLQNEKADLDRTLRKLDQEMEQLNHHTTTRTQMEMLTKDKADKDEQIRKIKSRHSDELTSLLGYFPNKKQLEDWLHSKSKEINQTRDRLAKLNKELASSEQNKNHINNELKRKEEQLSSYEDKLFDVCGSQDFESDLDRLKEEIEKSSKQRAMLAGATAVYSQFITQLTDENQSCCPVCQRVFQTEAELQEVISDLQSKLRLAPDKLKSTESELKKKEKRRDEMLGLVPMRQSIIDLKEKEIPELRNKLQNVNRDIQRLKNDIEEQETLLGTIMPEEESAKVCLTDVTIMERFQMELKDVERKIAQQAAKLQGIDLDRTVQQVNQEKQEKQHKLDTVSSKIELNRKLIQDQQEQIQHLKSTTNELKSEKLQISTNLQRRQQLEEQTVELSTEVQSLYREIKDAKEQVSPLETTLEKFQQEKEELINKKNTSNKIAQDKLNDIKEKVKNIHGYMKDIENYIQDGKDDYKKQKETELNKVIAQLSECEKHKEKINEDMRLMRQDIDTQKIQERWLQDNLTLRKRNEELKEVEEERKQHLKEMGQMQVLQMKSEHQKLEENIDNIKRNHNLALGRQKGYEEEIIHFKKELREPQFRDAEEKYREMMIVMRTTELVNKDLDIYYKTLDQAIMKFHSMKMEEINKIIRDLWRSTYRGQDIEYIEIRSDADENVSASDKRRNYNYRVVMLKGDTALDMRGRCSAGQKVLASLIIRLALAETFCLNCGIIALDEPTTNLDRENIESLAHALVEIIKSRSQQRNFQLLVITHDEDFVELLGRSEYVEKFYRIKKNIDQCSEIVKCSVSSLGFNVH
B3: sp¦O75915¦PRAF3_HUMAN (protein, UniProt O75915 1-188, looked up)
PRA1 family protein 3: MDVNIAPLRAWDDFFPGSDRFARPDFRDISKWNNRVVSNLLYYQTNYLVVAAMMISIVGFLSPFNMILGGIVVVLVFTGFVWAAHNKDVLRRMKKRYPTTFVMVVMLASYFLISMFGGVMVFVFGITFPLLLMFIHASLRLRNLKNKLENKMEGIGLKRTPMGIVLDALEQQEEGINRLTDYISKVKE
B4: sp¦Q9BXW7¦HDHD5_HUMAN (protein, UniProt Q9BXW7 24-423, looked up)
Haloacid dehalogenase-like …: AAGLQGRPARRCYAVGPAQSPPTFGFLLDIDGVLVRGHRVIPAALKAFRRLVNSQGQLRVPVVFVTNAGNILQHSKAQELSALLGCEVDADQVILSHSPMKLFSEYHEKRMLVSGQGPVMENAQGLGFRNVVTVDELRMAFPLLDMVDLERRLKTTPLPRNDFPRIEGVLLLGEPVRWETSLQLIMDVLLSNGSPGAGLATPPYPHLPVLASNMDLLWMAEAKMPRFGHGTFLLCLETIYQKVTGKELRYEGLMGKPSILTYQYAEDLIRRQAERRGWAAPIRKLYAVGDNPMSDVYGANLFHQYLQKATHDGAPELGAGGTRQQQPSASQSCISILVCTGVYNPRNPQSTEPVLGGGEPPFHGHRDLCFSPGLMEASHVVNDVNEAVQLVFRKEGWALE
B5: sp¦P61020¦RAB5B_HUMAN (protein, UniProt P61020 2-215, looked up)
Ras-related protein Rab-5B: TSRSTARPNGQPQASKICQFKLVLLGESAVGKSSLVLRFVKGQFHEYQESTIGAAFLTQSVCLDDTTVKFEIWDTAGQERYHSLAPMYYRGAQAAIVVYDITNQETFARAKTWVKELQRQASPSIVIALAGNKADLANKRMVEYEEAQAYADDNSLLFMETSAKTAMNVNDLFLAIAKKLPKSEPQNLGGAAGRSRGVDLHEQSQQNKSQCCSN
B6: sp¦Q7L5N7¦PCAT2_HUMAN (protein, UniProt Q7L5N7 1-544, looked up)
Lysophosphatidylcholine …: MSRCAQAAEVAATVPGAGVGNVGLRPPMVPRQASFFPPPVPNPFVQQTQIGSARRVQIVLLGIILLPIRVLLVALILLLAWPFAAISTVCCPEKLTHPITGWRRKITQTALKFLGRAMFFSMGFIVAVKGKIASPLEAPVFVAAPHSTFFDGIACVVAGLPSMVSRNENAQVPLIGRLLRAVQPVLVSRVDPDSRKNTINEIIKRTTSGGEWPQILVFPEGTCTNRSCLITFKPGAFIPGVPVQPVLLRYPNKLDTVTWTWQGYTFIQLCMLTFCQLFTKVEVEFMPVQVPNDEEKNDPVLFANKVRNLMAEALGIPVTDHTYEDCRLMISAGQLTLPMEAGLVEFTKISRKLKLDWDGVRKHLDEYASIASSSKGGRIGIEEFAKYLKLPVSDVLRQLFALFDRNHDGSIDFREYVIGLAVLCNPSNTEEIIQVAFKLFDVDEDGYITEEEFSTILQASLGVPDLDVSGLFKEIAQGDSISYEEFKSFALKHPEYAKIFTTYLDLQTCHVFSLPKEVQTTPSTASNKVSPEKHEESTSDKKDD
B7: sp¦Q9P035¦HACD3_HUMAN (protein, UniProt Q9P035 1-362, looked up)
Very-long-chain …: MENQVLTPHVYWAQRHRELYLRVELSDVQNPAISITENVLHFKAQGHGAKGDNVYEFHLEFLDLVKPEPVYKLTQRQVNITVQKKVSQWWERLTKQEKRPLFLAPDFDRWLDESDAEMELRAKEEERLNKLRLESEGSPETLTNLRKGYLFMYNLVQFLGFSWIFVNLTVRFCILGKESFYDTFHTVADMMYFCQMLAVVETINAAIGVTTSPVLPSLIQLLGRNFILFIIFGTMEEMQNKAVVFFVFYLWSAIEIFRYSFYMLTCIDMDWKVLTWLRYTLWIPLYPLGCLAEAVSVIQSIPIFNETGRFSFTLPYPVKIKVRFSFFLQIYLIMIFLGLYINFRHLYKQRRRRYGQKKKKIH

System: human HL60 cells
Test: SWATH-MS proteomics, differential protein representation, akirin2 KO vs WT HL60 cells
Assay type: cell-based
Details: KO vs WT HL60 cells; sheet "Under-represented in KO"
Method in brief: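 Proteins from WT and akirin2 KO HL60 cells (n=3 biological replicates) were FASP trypsin-digested and analyzed by SWATH-MS DIA with variable windows against an IDA-derived spectral library. Identifications at 1% global FDR; quantities normalized to total area sums of all detected proteins.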

Row | Molecule | Fold Change | Log (Fold Change)
1 | B1 | 0.4613 | -0.336
2 | B2 | 0.4495 | -0.3473
3 | B3 | 0.4503 | -0.3465
4 | B4 | 0.4469 | -0.3498
5 | B5 | 0.4514 | -0.3455
6 | B6 | 0.4537 | -0.3432
7 | B7 | 0.4569 | -0.3402
